Assay [1] concerns cMet transcriptional activity. The assay is described as follows: cMet promoter reporter assay. It counts as cell-based. On the technique in general: In a reporter assay the amount or activity of a reporter protein is the signal.
In a further assay the test system is LNCaP cells. The assay is described as follows: EMT marker / RANKL expression and signaling by RT-PCR and Western blot, LNCaP model. The class given is cell-based, human. Here is the method:
Total RNA from cells was isolated using RNeasy Mini Kit (Qiagen, Valencia, Calif.) according to manufacturer's instructions. Complementary DNA (cDNA) was generated from 3 μg of total RNA using SuperScript® III First-Strand Synthesis System (Invitrogen, Carlsbad Calif.), and 1 μl of cDNA was subjected to PCR analyses using the following primers: RANKL F: 5′-TGGATCACAGCACATCAGAGCAG-3′ (SEQ ID NO:3); RANKL R: 5′-TGGGGCTCAATCTATATCTCGAAC-3′ (SEQ ID NO:4); RANK F: 5′-GGGAAAGCACTCACAGCTAATTTG-3′ (SEQ ID NO:5); RANK R: 5′-GCACTGGCTTAAACTGTCATTCTCC-3′ (SEQ ID NO:6); OPG F: 5′-GCT AAC CTC ACC TTC GAG-3′ (SEQ ID NO:7); OPG R: 5′-TGA TTG GAC CTG GTT ACC-3′ (SEQ ID NO:8); E-cadherin F: 5′-GCCAAGCAGCAGTACATTCTACACG-3′ (SEQ ID NO:9); E-cadherin R: 5′-GCTGTTCTTCACGTGCTCAAAATCC-3′ (SEQ ID NO:10); N-cadherin F: 5′-GATGTTGAGGTACAGAATCGT-3′ (SEQ ID NO:11); N-cadherin R: 5′-GGT CGG TCT GGA TGG CGA-3′ (SEQ ID NO:12); Snail F: 5′-CAGACCCACTCAGATGTCAA-3′ (SEQ ID NO:13); Snail R: 5′-CATAGTTAGTCACACCTCGT-3′ (SEQ ID NO:14); Vimentin F: 5′-GGA CTC GGT GGA CTT CTC-3′ (SEQ ID NO:15); Vimentin R: 5′-CGC ATC TCC TCC TCG TAG-3′ (SEQ ID NO:16). The PCR reaction cycles involved an initial denaturation at 94° C. for 10 min, followed by 36 cycles of 94° C., 1 min; 55° C., 30 sec for RANKL and RANK and 48° C., 1 min for OPG; 72° C., 1 min and a final extension at 72° C. for 10 min. For E-cadherin and N-cadherin gene amplification, the PCR reactions ran for a total of 32 cycles and the annealing temperature was 55° C. and 47° C., respectively for 30 sec. For Snail, Vimentin, and GAPDH amplification, the PCR reactions ran for a total of 28 cycles with annealing temperatures at 48° C. for 30 sec. The amplified PCR products were detected and analyzed on 1% agarose gel.
ARCaPE and LNCaP cells were cultured in 6-well plate and at 70% confluency, the cells were serum-starved overnight and then treated with 200 ng/ml of trimerized RANKL in serum-free and phenol-red free RPMI-1640 medium for three days before harvesting the cells. ARCaPE-RANKL and LNCaP-RANKL cells were cultured in 6-well plate and treated with 20 μM of LY294002, a PI3K inhibitor, 20 μM of SB203580, an inhibitor of MAP kinase reactivating kinase, or 2 μM of PS341 (bortezomib), a proteasome inhibitor, at 90% confluency for four hours. Cells were lysed in RIPA buffer containing 1× protease inhibitor cocktail (Thermo Fisher Scientific, Waltham, Mass.) and centrifuged, and the supernatants were collected and quantified using Bradford Protein Assay (Thermo Fisher Scientific, Waltham, Mass.). Cell lysates (20-30 μg) were resolved on a 4-12% Bis-Tris gradient SDS-PAGE (Invitrogen, Carlsbad, Calif.) under reducing conditions, followed by transblotting onto nitrocellulose membrane (BioRad, Hercules, Calif.). The membranes were blocked in 5% non-fat milk in PBST for one hour at room temperature (RT) and incubated with diluted primary antibodies in blocking buffer at 4° C. overnight. The primary antibodies used were RANKL, E-cadherin, vimentin, and OPG (Santa Cruz Biotechnology, Inc., Santa Cruz, Calif.), RANK (Amgen, Thousand Oaks, Calif.), N-cadherin (BD Transduction Laboratories, San Jose, Calif.), phosphor-Akt (Ser 473), Akt, phosphor-p38 (Thr180/Tyr182), p38, phosphor-ERK1/2 (Thr202/Tyr204), ERK, phosphor-SAPK/JNK (Thr183/Tyr185), JNK, phosphor-NF-κB p65 (Ser536), and NF-κB p65 (Cell Signaling Technology, Danvers, Mass.). The membranes were washed with PBST for three times before incubating with peroxidase-conjugated anti-mouse or anti-rabbit secondary antibodies at RT for one hour. After three times washing, the membranes were visualized using ECL Plus reagent (GE Healthcare, Piscataway, N.J.).

Assay [2] relates to RANKL promoter in ARCaPE, ARCaPM and ARCaPE-RANKL cells. The assay is described as follows: RANKL promoter reporter assay, ARCaP model. It counts as cell-based, human. An excerpt:
Because the inventors are interested in how RANKL is transcriptionally regulated, the inventors have constructed a 2.5 kb 5′ upstream region of RANKL promoter. The inventors used BAC clones (RP11-86N24) to amplify the promoter region of RANKL from human chromosome 13 contig. The whole promoter region (2.5 kb) was then cloned into pGL3 basic luciferase reporter vector. The inventors placed RANKL promoter reporter into ARCaPE,M, C4-2, and a positive cell line, SaOS-2 to examine the basic promoter activity. Then, the inventors stimulated the RANKL promoter by various growth factors, such as vitamin D3, PTH, and TGFβ.

The test system of assay [3] is cMyc site within the RANKL promoter in LNCaP cells. The assay is described as follows: ChIP analysis (quantitative real-time PCR) of cMyc binding to the RANKL promoter. The class given is cell-based, human.

Entries after “also recorded” stand apart in the source; their conditions may differ.

The text below walks through data of patent US20130263297A1, “METHODS OF TREATING CANCER” (Cedars-Sinai Medical Center, priority 2010, published 2013).

In the case of osteoprotegerin [OPG], the “RANKL up-regulated cMet transcriptional activity” value in assay [1] (OPG treatment) was “attenuated”. In addition, in the assay with LNCaP cells (addition of OPG), the “RANKL-induced RANKL expression in LNCaP cells” value was “attenuated” and the “RANKL-induced biochemical EMT changes in LNCaP cells” value is on record as “abolished”. For the same molecule, in assay [2] (OPG treatment), the “RANKL promoter activity in ARCaPM cells” value is listed as “dampen” and the “increased RANKL promoter activity in ARCaPE-RANKL cells” value is on record as “attenuated”. In addition, the “induction of cMyc binding to the cMyc site” value in assay [3] (exposing to OPG) is “dampened”.

B1: RANKL: trimerized recombinant RANKL protein (rRANKL), receptor activator of NF-KB ligand (protein, UniProt O14788 69-317, looked up)
extracellular domain: YFRAQMDPNRISEDGTHCIYRILRLHENADFQDTTLESQDTKLIPDSCRRIKQAFQGAVQKELQHIVGSQHIRAEKAMVDGSWLDLAKRSKLEAQPFAHLTINATDIPSGSHKVSLSSWYHDRGWAKISNMTFSNGKLIVNQDGFYYLYANICFRHHETSGDLATEYLQLMVYVTKTSIKIPSSHTLMKGGSTKYWSGNSEFHFYSINVGGFFKLRSGEEISIEVSNPSLLDPDQDATYFGAFKVRDID
modifications: extracellular domain trimerized
As to B1, the cMet transcriptional activity result in assay [1] (RANKL treatment) is given as “up-regulated”. The “RANKL expression at mRNA and protein levels in LNCaP cells” value with LNCaP cells (RANKL treatment) is listed as “induced; also recorded: up-regulated”. Moreover, in the assay with LNCaP cells (RANKL-treated versus LNCaP cells), the “nuclear levels of cMyc and Max in LNCaP cells” value is recorded as “higher”. Further, the “induction of EMT (EMT-specific markers) in LNCaP cells” value in the assay with LNCaP cells (exogenously added RANKL, 200 ng/ml) is “confirmed; also recorded: decreased epithelial marker E-cadherin and increased mesenchymal marker vimentin, N-cadherin, and Snail”. Further, in the assay on LNCaP cells (treated with RANKL protein), the “phosphorylation of PI3K/Akt, P38 and NFκB proteins in parental LN cells” value was “elevated”. Moreover, in assay [2] (RANKL treatments), the “RANKL promoter activity in ARCaPE and ARCaPM cells” value is recorded as “induced”. For the same molecule, the “increase of cMyc binding to the cMyc site” value in assay [3] (RANKL-treated LNCaP cells, quantitative real-time PCR) is given as approximately 11 fold.
